The target in assay [1] is FcγRII (CD32) expressed on Raji cells. As to the kind of experiment: cell-based or functional assay.
Assay [2] deals with human CTLA4 expressed on Jurkat T cells (CTLA4 effector cells) (human) (UniProt P16410). As to the kind of experiment: cell-based or functional assay.

Where “and” joins values, the source holds several entries; their conditions need not be identical. Equal values may be shown once.

This is an account of results in patent publication US20250282870A1.

human CTLA4 expressed on Jurkat T cells (CTLA4 effector cells) (human), sequence (P16410 36-223): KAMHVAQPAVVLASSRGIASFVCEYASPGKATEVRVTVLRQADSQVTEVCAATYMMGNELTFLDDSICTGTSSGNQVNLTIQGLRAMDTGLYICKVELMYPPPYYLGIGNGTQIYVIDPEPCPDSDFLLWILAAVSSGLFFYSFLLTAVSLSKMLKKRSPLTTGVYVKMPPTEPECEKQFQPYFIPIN
L3D10 (BioLegend anti-CTLA4 antibody), sequence (heavy): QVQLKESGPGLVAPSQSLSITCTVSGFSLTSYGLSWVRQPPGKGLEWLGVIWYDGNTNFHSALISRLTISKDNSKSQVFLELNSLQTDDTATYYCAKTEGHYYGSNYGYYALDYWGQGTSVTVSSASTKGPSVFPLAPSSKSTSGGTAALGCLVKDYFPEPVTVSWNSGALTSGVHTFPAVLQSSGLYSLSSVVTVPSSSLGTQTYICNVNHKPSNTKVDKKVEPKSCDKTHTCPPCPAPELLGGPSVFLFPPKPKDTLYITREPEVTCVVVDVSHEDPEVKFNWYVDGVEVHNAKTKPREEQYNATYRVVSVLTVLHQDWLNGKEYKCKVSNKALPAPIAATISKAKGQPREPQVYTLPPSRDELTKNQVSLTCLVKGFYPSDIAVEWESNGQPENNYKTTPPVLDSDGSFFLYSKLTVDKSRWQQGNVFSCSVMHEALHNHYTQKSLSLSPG
L3D10 (BioLegend anti-CTLA4 antibody), sequence (light): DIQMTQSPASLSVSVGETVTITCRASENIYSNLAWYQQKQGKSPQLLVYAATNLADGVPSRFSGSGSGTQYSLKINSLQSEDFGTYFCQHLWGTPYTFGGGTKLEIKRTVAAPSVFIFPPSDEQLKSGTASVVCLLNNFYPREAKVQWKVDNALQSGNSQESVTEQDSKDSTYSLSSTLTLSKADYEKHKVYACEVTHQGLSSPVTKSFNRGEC

“ipilimumab (Selleckchem, Cat. No. A2001) (antibody)”: in assay [1], the RLU ratio of the CTLA4 blockade assay with anti-CD32 antibody at 10 µg per ml came out at 50% and the activity in the CTLA4 blockade assay with anti-CD32 antibody was 50%.
For the substance L3D10 (BioLegend anti-CTLA4 antibody), in assay [2], the RLU ratio, Promega CTLA4 Blockade Bioassay (luciferase readout) was 10 and 15; the half max activity concentration, CTLA4 Blockade Bioassay (luciferase or IL-2 readout) came out at 50 nM. Also, in assay [1], the RLU ratio of the CTLA4 blockade assay with anti-CD32 antibody at 10 µg per ml stood at 50%.
